B1: TPR t1 (parent)
chain: GACCAAUCUGCCCUCAGAGCUCGAGAACAUCUUCGGAUGCAGAGGAGGCAGGCUUCGGUGGCGCGAUAGCGCCAACGUCCUCAACCUCCAAUGCAUCCCACCACAUGAUGAUGCCUGAAGAGCCUUGGUUUUUUG

Variants of: B1
Assay: polymerase ribozyme fitness, log enrichment relative to wild type (log ratio); higher = more active; in vitro selection for triplet polymerase activity
Summary of the method: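 Both subunits of a heterodimeric triplet polymerase ribozyme were given their own mutant library, built by PCR and transcribed. Each library was annealed with a biotinylated primer, the partner subunit and triplets, incubated frozen at −7 °C, and its extended constructs gel-excised, captured on streptavidin beads and amplified by RT-PCR, all in one round done in triplicate. Fitness is the logarithm of genotype enrichment relative to wild-type enrichment, with replicates averaged by inverse-variance weighting. That logarithm is base 2, and Illumina-sequenced genotypes needed ≥10 input reads and ≥1 read per output.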
With G77A U131A the “polymerase ribozyme fitness (log ratio)” value was 0.113. In the case of A5U U54G, the “polymerase ribozyme fitness (log ratio)” value is reported as -0.237. In the case of C13A A43U G60C C88A, the “polymerase ribozyme fitness (log ratio)” value is reported as -4.2. With G122A the “polymerase ribozyme fitness (log ratio)” value was -0.49. In the case of C53G U78C C80U A91G U92C C124A, the “polymerase ribozyme fitness (log ratio)” value is reported as -5.02. In the case of C40A A43U, the “polymerase ribozyme fitness (log ratio)” value is reported as -2.77. In the case of A46U C62G U112G, the “polymerase ribozyme fitness (log ratio)” value is reported as -2.14. In the case of C56U C104A, the “polymerase ribozyme fitness (log ratio)” value is reported as -1.58. In the case of C12A C20U G47U, the “polymerase ribozyme fitness (log ratio)” value is reported as -4.43. In the case of G47C C49A G63U U78C C123G C124U, the “polymerase ribozyme fitness (log ratio)” value is reported as -4.24. With G69A U78G A118U the “polymerase ribozyme fitness (log ratio)” value was -1.62. With U7C C11U G69C the “polymerase ribozyme fitness (log ratio)” value was -1. In the case of A111U G113A, the “polymerase ribozyme fitness (log ratio)” value is reported as -4.49. For C3A G120A U130C, the “polymerase ribozyme fitness (log ratio)” value was 0.403. For G61U C99A, the “polymerase ribozyme fitness (log ratio)” value was -5.7. In the case of G69U C79U, the “polymerase ribozyme fitness (log ratio)” value is reported as -0.838. With G47A C72U the “polymerase ribozyme fitness (log ratio)” value was -0.456. For G51A A68U C82U C124U, the “polymerase ribozyme fitness (log ratio)” value was -7.31. With C31U U78C the “polymerase ribozyme fitness (log ratio)” value was -5.28. In the case of G60C A95C, the “polymerase ribozyme fitness (log ratio)” value is reported as -1.25. For A37C A43U C49G, the “polymerase ribozyme fitness (log ratio)” value was -3.33. In the case of G42C G52U, the “polymerase ribozyme fitness (log ratio)” value is reported as -2.21. With C13A G61U U92C C114A the “polymerase ribozyme fitness (log ratio)” value was -3.9. In the case of G10A A29C G39A G69U, the “polymerase ribozyme fitness (log ratio)” value is reported as -2.05. With A5U C85A C88U A100U A111G the “polymerase ribozyme fitness (log ratio)” value was -2.1. In the case of C99U C115G, the “polymerase ribozyme fitness (log ratio)” value is reported as -4.9. With C3A C79U C124G the “polymerase ribozyme fitness (log ratio)” value was 0.849. With A2U C8U G47C G93U the “polymerase ribozyme fitness (log ratio)” value was -4.25. In the case of C11U C80U G113C, the “polymerase ribozyme fitness (log ratio)” value is reported as -3.93. With G44U C56U U87C the “polymerase ribozyme fitness (log ratio)” value was -1.16. With G45A A50G G52A G61U U131G the “polymerase ribozyme fitness (log ratio)” value was -3.62. In the case of C70A U125A G128A, the “polymerase ribozyme fitness (log ratio)” value is reported as -3.04. With G45U G48A U132C the “polymerase ribozyme fitness (log ratio)” value was -1.5. In the case of A24C G51U G61C C79A C102A G110U, the “polymerase ribozyme fitness (log ratio)” value is reported as -6.53. In the case of U21G C31U U78C C85A U112G, the “polymerase ribozyme fitness (log ratio)” value is reported as -5.44. In the case of G113C C115U, the “polymerase ribozyme fitness (log ratio)” value is reported as -3.35. With C114G C124A the “polymerase ribozyme fitness (log ratio)” value was -1.15. With U21C A27G C123G the “polymerase ribozyme fitness (log ratio)” value was -0.817. For G35C G39U, the “polymerase ribozyme fitness (log ratio)” value was -5.8. For C34U G60U C99U, the “polymerase ribozyme fitness (log ratio)” value was -3.7. In the case of U106G G110C U112C, the “polymerase ribozyme fitness (log ratio)” value is reported as -5.6. With C76U C104A the “polymerase ribozyme fitness (log ratio)” value was -1.92. In the case of U14A C49G G61C A66U, the “polymerase ribozyme fitness (log ratio)” value is reported as -5.01. For G45A C115G G127C, the “polymerase ribozyme fitness (log ratio)” value was -4.31. In the case of U55C C70U C85A, the “polymerase ribozyme fitness (log ratio)” value is reported as -2.03. For C8G C20U A46U G52C, the “polymerase ribozyme fitness (log ratio)” value was -3.42. For C62G C124U, the “polymerase ribozyme fitness (log ratio)” value was 0.784. In the case of A2U G93C, the “polymerase ribozyme fitness (log ratio)” value is reported as -3.65. In the case of C8A G47U C73G C82U, the “polymerase ribozyme fitness (log ratio)” value is reported as -1.82. In the case of G45A U54A G61C, the “polymerase ribozyme fitness (log ratio)” value is reported as -0.932. For U109G A118G, the “polymerase ribozyme fitness (log ratio)” value was -5.14. In the case of C80A A121G, the “polymerase ribozyme fitness (log ratio)” value is reported as -2.89. In the case of C56U A83C A121U G127U U133G, the “polymerase ribozyme fitness (log ratio)” value is reported as 1.28. For A50U G60U, the “polymerase ribozyme fitness (log ratio)” value was -1.4. With C3U G47U A50C the “polymerase ribozyme fitness (log ratio)” value was -2.21. With U87A G120A the “polymerase ribozyme fitness (log ratio)” value was 0.663. For C8G A50U C56A C79G A100G A111U, the “polymerase ribozyme fitness (log ratio)” value was -5.8. With G69C U106A G120U G128U the “polymerase ribozyme fitness (log ratio)” value was -2.78. For G47A G69A G77C C99U C114G, the “polymerase ribozyme fitness (log ratio)” value was -6.85. With G25C C97U C104A U109G the “polymerase ribozyme fitness (log ratio)” value was -6.31. In the case of C13U C20G G45A U96A, the “polymerase ribozyme fitness (log ratio)” value is reported as -4.96. In the case of C12U U14A C64U G110U G113A U130C, the “polymerase ribozyme fitness (log ratio)” value is reported as -4.16. For G71A C79U A83G U129G, the “polymerase ribozyme fitness (log ratio)” value was -3.32. In the case of C22G C56A C73U, the “polymerase ribozyme fitness (log ratio)” value is reported as -4.49. In the case of C12A G77U C82U, the “polymerase ribozyme fitness (log ratio)” value is reported as -1.87. With C15U C62G C85A the “polymerase ribozyme fitness (log ratio)” value was -4.14. In the case of A84U C123A, the “polymerase ribozyme fitness (log ratio)” value is reported as -0.143. In the case of C56A G63C C102A, the “polymerase ribozyme fitness (log ratio)” value is reported as -4.29. With G51U C82U the “polymerase ribozyme fitness (log ratio)” value was -1.77. For G17A G71U G122A, the “polymerase ribozyme fitness (log ratio)” value was -4.15. With C8G G36C A84U C115U G122U the “polymerase ribozyme fitness (log ratio)” value was -1.01. With G48A C72G the “polymerase ribozyme fitness (log ratio)” value was -0.135. For A27C A50C A84C G120A, the “polymerase ribozyme fitness (log ratio)” value was -3.23. In the case of U106A G117U G127U, the “polymerase ribozyme fitness (log ratio)” value is reported as -0.344. In the case of U9C U96A, the “polymerase ribozyme fitness (log ratio)” value is reported as 0.079. With A26G C49U C64U U87A the “polymerase ribozyme fitness (log ratio)” value was -3.25. In the case of C15U A37C C76G, the “polymerase ribozyme fitness (log ratio)” value is reported as -2.14. In the case of A6G C62U U129C, the “polymerase ribozyme fitness (log ratio)” value is reported as -0.185. In the case of C49A U133A, the “polymerase ribozyme fitness (log ratio)” value is reported as -0.928. With A46U A111G the “polymerase ribozyme fitness (log ratio)” value was -1.48. With G48U A95U A105U U125A the “polymerase ribozyme fitness (log ratio)” value was -4.37. For C40U C115A, the “polymerase ribozyme fitness (log ratio)” value was -0.771. With G57A C123U the “polymerase ribozyme fitness (log ratio)” value was -0.636.

Reference: the RNAGym collection of RNA variant scans (doi:10.1073/pnas.2313332121)
